From patent publication US20210130473A1 (SILVERBACK THERAPEUTICS, published 2021)

T1: human ASGR1 (asialoglycoprotein receptor 1) on cells (human, UniProt P07306 1-291)
T1 construct: whole, on cells; also called HepG2 cells; CHO-S cells transfected with human ASGR1 full length DNA
T1 sequence (looked up): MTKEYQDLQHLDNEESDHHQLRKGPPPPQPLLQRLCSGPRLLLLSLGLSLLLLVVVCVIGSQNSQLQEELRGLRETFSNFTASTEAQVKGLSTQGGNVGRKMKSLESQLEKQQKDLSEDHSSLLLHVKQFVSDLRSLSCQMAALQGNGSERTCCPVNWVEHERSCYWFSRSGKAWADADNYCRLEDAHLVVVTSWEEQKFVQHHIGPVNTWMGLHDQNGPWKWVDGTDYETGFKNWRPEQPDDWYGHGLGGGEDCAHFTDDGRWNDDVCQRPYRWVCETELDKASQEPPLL

T2: rat ASGR1 on CHO-S cells (rat, UniProt P02706 1-284)
T2 construct: whole, on cells
T2 sequence (looked up): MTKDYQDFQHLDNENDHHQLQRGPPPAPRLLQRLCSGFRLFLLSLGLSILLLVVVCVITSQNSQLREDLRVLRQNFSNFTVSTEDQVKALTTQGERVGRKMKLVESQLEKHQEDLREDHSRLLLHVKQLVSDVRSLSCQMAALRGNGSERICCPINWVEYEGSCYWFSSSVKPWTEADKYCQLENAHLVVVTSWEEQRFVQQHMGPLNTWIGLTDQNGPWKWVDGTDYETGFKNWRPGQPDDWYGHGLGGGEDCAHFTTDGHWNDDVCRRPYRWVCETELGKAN

T3: rat CLEC10A (rat, UniProt P49301 59-306, limits assumed)
T3 construct: the assay is not described
T3 sequence (looked up): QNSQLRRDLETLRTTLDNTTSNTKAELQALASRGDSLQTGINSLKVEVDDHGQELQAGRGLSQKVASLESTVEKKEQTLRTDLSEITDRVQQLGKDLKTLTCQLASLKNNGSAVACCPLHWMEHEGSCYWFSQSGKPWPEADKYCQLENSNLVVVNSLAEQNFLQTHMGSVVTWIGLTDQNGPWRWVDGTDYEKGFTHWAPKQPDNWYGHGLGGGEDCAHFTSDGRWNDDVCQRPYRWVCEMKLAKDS

T4: His-tagged human ASGR1 extracellular domain (human, UniProt P07306 62-291)
T4 construct: extracellular domain; also called His-tagged human ASGR1 ECD; human ASGR1 ECD; not shown: His tag
T4 sequence (looked up): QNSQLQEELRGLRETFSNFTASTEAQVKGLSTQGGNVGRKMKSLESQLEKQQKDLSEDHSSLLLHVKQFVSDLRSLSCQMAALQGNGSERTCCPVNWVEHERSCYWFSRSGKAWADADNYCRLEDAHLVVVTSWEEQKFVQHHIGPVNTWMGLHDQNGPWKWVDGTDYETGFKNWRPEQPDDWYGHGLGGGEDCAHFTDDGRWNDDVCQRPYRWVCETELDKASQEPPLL

T5: human Fc-fused human ASGR1 extracellular domain (human, UniProt P07306 62-291)
T5 construct: extracellular domain; also called human Fc-fused ASGR1 ECD; not shown: human Fc
T5 sequence (looked up): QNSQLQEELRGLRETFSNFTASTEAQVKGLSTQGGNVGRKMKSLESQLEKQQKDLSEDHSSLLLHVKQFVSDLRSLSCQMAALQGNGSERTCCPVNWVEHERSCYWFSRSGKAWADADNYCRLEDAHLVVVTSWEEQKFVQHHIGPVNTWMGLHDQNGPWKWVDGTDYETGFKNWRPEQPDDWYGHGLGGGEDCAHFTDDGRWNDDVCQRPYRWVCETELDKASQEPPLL


Assays:
[1] = molecular target: T1, human ASGR1 (asialoglycoprotein …); assay: Guava flow cytometry screen on HepG2 cells
[2] = molecular target: T2, rat ASGR1 on CHO-S cells; assay: Guava flow cytometry on CHO-S cells expressing rat ASGR1
Procedure: (§1) Anti-human ASGR1 antibodies of this disclosure were examined for cross-reactivity with Cynomolgus macaque and rat ASGR1. Briefly, sequence encoding Cynomolgus macaque or rat ASGR1 was transiently transfected into CHO-S cells. Transfected cells were before performing cell binding assay. A total of about 1.5×10⁴ transfected cells/well were added to 96-well V-bottom assay plate, incubated at 37° C., 5% CO2 for 48-72 hours, and then washed with culture medium before adding 100 μl of each ASGR1 antibody at different concentrations starting from 100 nM and 3-fold dilutions to a total of eight wells. The cells with antibody were incubated for 40 minutes at 4° C., then washed three times with 200 μl of fresh culture medium. To each well was added 50 μl PE conjugated goat anti-human Fc (SouthemBiotech) at 1:200 dilution in culture medium and then incubated at 4° C. for 20 minutes. After washing the plate once, the treated cells were resuspended in 200 μl culture medium and then the stained cells were analyzed on GUAVA® using Incyte software.

[3] = molecular target: T6, Cynomolgus macaque ASGR1 on CHO-S cells (Cynomolgus macaque); assay: Guava flow cytometry on CHO-S cells expressing cynomolgus ASGR1
T6 construct: whole, on cells; also called Cynomologous ASGR1
Procedure: as §1

[4] = molecular target: T2, rat ASGR1 on CHO-S cells; assay: Guava flow cytometry on CHO-S cells expressing rat ASGR1 (repeat of Table 16)
Procedure: as §1, with “Briefly,” for “Anti-human ASGR1 antibodies of this disclosure were examined for cross-reactivity with Cynomolgus macaque and rat ASGR1. Briefly,”, “(SouthernBiotech)” for “(SouthemBiotech)”
as §1

[5] = molecular target: T1, human ASGR1 (asialoglycoprotein …); assay: flow cytometry on HepG2 cells, anti-human IgG PE secondary, MFI (Geo Mean)
Procedure: Briefly, 5×10⁴ HepG2 cells/well were contacted with titrating concentrations of anti-ASGR1 antibodies in FACS Buffer (FB: PBS+2% FBS+1 mM CaCl₂)) for 30 minutes at 4° C. Cells were washed twice in FB, then incubated in anti-human IgG PE secondary for 30 minutes at 4° C. Cells were washed twice in FB, then analyzed by flow cytometry.

[6] = molecular target: T6, Cynomolgus macaque ASGR1 on CHO-S cells; assay: Guava flow cytometry on CHO-S cells expressing cynomolgus ASGR1 (repeat of Table 15)
Procedure: as §1

[7] = molecular target: T2, rat ASGR1 on CHO-S cells; assay: Guava flow cytometry on CHO-S cells expressing rat ASGR1; remark: listed apart in the source
[8] = molecular target: T3, rat CLEC10A; assay: not described
[9] = molecular target: T4, His-tagged human ASGR1 extracellular …; assay: Octet, His-tagged ASGR1 ECD on Penta-His sensors; N = association not sensitive to Ca2+ (binds also without calcium)
Procedure: Analysis of ASGR1 antibody binding to human ASGR1 ECD was performed using the OCTET® Red 96 instrument and analyzed using the OCTET®Data Analysis Software 9.0 (ForteBio). His-tagged human ASGR1 ECD was immobilized to OCTET® Penta-His biosensors and ASGR1 antibodies were subjected to avidity binding under the conditions described above. Association with the ASGR1 ECD was measured by the rate of and increase in magnitude of signal response at a given antibody concentration. Dissociation from the ASGR1 ECD was measured the rate of loss in signal upon removal of the antibody and further incubation with or without Ca²⁺.

[10] = molecular target: T5, human Fc-fused human ASGR1 …; assay: Octet binning, hFc-ASGR1 ECD on AHC sensors; competitor: ASGR1 mAb-A
Procedure: The interactions of the anti-ASGR1 antibodies of this disclosure and control mAbs with human ASGR1 ECD were analyzed using the OCTET® Data Analysis Software 9.0 (ForteBio).

binding result [1] | EC50 [2] [nM] | EC50 [3] [nM] | EC50 [4] [nM] | EC50 (read off the curve) [5] [µg/mL] | EC50 [6] [nM] | Binder | other results
binds | – | – | – | – | – | hzG2D-17 (antibody, human IgG1, kappa, V domains shown, humanized VH with the mouse G2D VL) VH: QVQLVQSGAEVKKPGASVKVSCKASGYTFTGYYMHWVRQAPGQRLEWMGRINPNNGATNYNQNFKDKASLTVDTSASTAYMELSSLRSEDTAVYYCARVNFYYWGQGTTLTVSS VL: DIKMTQSPSSMYASLGERVTITCKASQVINSYLSWFQQKPGKSPETLIYRANTLVDGVPSRFSGSGSGQDYSLTISSLEYEDLGIYYCLQYAEFPYTFGGGTKLEIKR | –
– | 0.62 | 0.67 | 0.62 | ~0.3 | 0.67 | J4F (antibody, V domains shown, parental mouse hybridoma antibody; also called mAb J4F) VH: QVQLQQSGDDLVKPGASVKLSCKASGYTFTSYWINWIKQRPGQGLEWIGRIVPGSGSTYYNEMFKDKATLTVDTSSSTAYIQLSSLSSEDSAVYFCARKPNFDVWGAGTTVTVSS VL: DIVMTQSQKFMSTSVGDRVSVTCKASQNVGTNVAWYQQKPGQSPKAVIYSASYRFSGVPDRLTGSGSGTDFTLTITNVQSEDLAEYFCQQYNSYPLTFGAGTKLELK | –
– | – | 0.66 | – | – | 0.66 | hzH8K-1 (antibody, IgG1, V domains shown, IgG1, kappa) VH: QVQLQESGPGLVKPSQTLSLTCTVSGGSISSDYAWNWIRQHPGKGLEWIGYRSYRGSTSYNPSLKSRVTISVDTSKNQFSLKLSSVTAADTAVYYCARRGYYGSSSHWYFDVWGQGTTVTVSS VL: DIQMTQSPSSLSASVGDRVTITCRASENIYSYLAWYQQKPGKAPKLLIYNAKTLAEGVPSRFSGSGSGTDFTLTISSLQPEDFATYYCQHHYGTPLTFGGGTKVEIK | binding result [7]: no binding (tested: 100 nM highest concentration)
– | 0.37 | 0.47 | 0.37 | ~0.2 | 0.47 | G2D (antibody, V domains shown, parental mouse hybridoma antibody; also called mAb G2D) VH: EVQLQQSGPELVKPGASVKISCKASGYSFTGYYMHWVKQSHVKSLEWIGRINPNNGATNYNQNFKDKASLTVDKSSSTAYMEFHSLTSEDSAVYYCTSVNFYYWGQGTTLTVSS VL: DIKMTQSPSSMYASLGERVTITCKASQVINSYLSWFQQKPGKSPETLIYRANTLVDGVPSRFSGSGSGQDYSLTISSLEYEDLGIYYCLQYAEFPYTFGGGTKLEIK | binding result [8]: no binding
– | 0.52 | 0.68 | 0.52 | ~0.3 | 0.68 | K2E (antibody, V domains shown, parental mouse hybridoma antibody; also called mAb K2E) VH: QVQLQQSAAELARPGASVKMSCKASGYTFTSYTMHWVKQRPGQGLEWIGYISPSSGYTEYNQKFKDKTTLTADKSSSTAYMQLSSLTSEDSAVYYCARKFDYWGQGTTLTVSS VL: DIKMTQSPSSMYASLGERVTITCKASQDINSYLSWFQQKPGKSPKTLIYRANRLVDGVPSRFSGSGSGQDFSLTISSLEYEDMGIYYCLQYDEFPFTFGSGTKLEIK | –
binds | – | – | – | – | – | hzG2D-11 (antibody, human IgG1, kappa) heavy: not shown light: DIQMTQSPSSLSASVGDRVTITCKASQVINSYLSWFQQKPGKAPKSLIYRANTLVDGVPSRFSGSGSGTDFTLTISSLQPEDFATYYCLQYAEFPYTFGGGTKVEIKRTVAAPSVFIFPPSDEQLKSGTASVVCLLNNFYPREAKVQWKVDNALQSGNSQESVTEQDSKDSTYSLSSTLTLSKADYEKHKVYACEVTHQGLSSPVTKSFNRGEC | –
binds | – | – | – | – | – | hzG2D-20 (antibody, human IgG1, kappa) heavy: not shown light: DIQMTQSPSSLSASVGDRVTITCKASQVINSYLSWFQQKPGKAPKSLIYRANTLVDGVPSRFSGSGSGTDFTLTISSLQPEDFATYYCLQYAEFPYTFGGGTKVEIKRTVAAPSVFIFPPSDEQLKSGTASVVCLLNNFYPREAKVQWKVDNALQSGNSQESVTEQDSKDSTYSLSSTLTLSKADYEKHKVYACEVTHQGLSSPVTKSFNRGEC | –
– | – | 0.39 | – | – | 0.39 | hzL4L-7 (antibody, IgG1, V domains shown, IgG1, kappa) VH: QVQLQESGPGLVKPSQTLSLTCTVSGYSISSDYAWNWIRQHPGKGLEWIGYISYSGSTRYNPSLKSRVTITRDTSKNQFSLKLSSVTAADTAVYYCARRYRYDEGYGMDYWGQGTTVTVSS VL: DIQMTQSPSSLSASVGDRVTITCRASENIYSNLAWYQQKPGKAPKLLIYAATNLADGVPSRFSGSGSGTDFTLTISSLQPEDFATYYCQHFWGTPPWTFGGGTKVEIK | binding result [7]: no binding (tested: 100 nM highest concentration); binding result [9]: binds
– | – | – | – | – | – | L4L (antibody, V domains shown, parental mouse hybridoma antibody; also called mAb L4L) VH: DVQLQESGPGLVKPSQSLSLTCTVTGYSITSDYAWNWIRQFPGNKLEWMGYISYSGSTRYNPSLKSRISITRDTSKNQFFLQLNSVTTEDTATYYCARRYRYDEGYGMDYWGQGTSVTVSS VL: DIQMTQSPASLSVFVGEIVTITCRASENIYSNLAWYQQKQGKSPQLLVYAATNLADGVPSRFTGSGSGTQFSLKINSLQSEDFGNYYCQHFWGTPPWTFGGGTKLEIK | binding result [10]: binds; binding result [5]: binds
– | – | – | – | – | – | H8K (antibody, V domains shown, parental mouse hybridoma antibody; also called mAb H8K) VH: DVQLQESGPGLVKPSQSLSLTCTVTGFSITSDYAWNWIRQFPGNQLEWMGYRSYRGSTSYNPSLKSRISITRDTSKNQFFLQLNSVTTEDTATYYCARRGYYGSSSHWYFDVWGAGTTVTVSS VL: DIQMTQSPASLSASVGETVTITCRASENIYSYLAWYQQKQGKSPQLLVYNAKTLAEGVPSRFSGSGSGTQFSLKINSLQPEDFGSYYCQHHYGTPLTFGSGTKLELK | binding result [10]: binds; binding result [5]: binds
